Assay [1] has as its target T1, TauC3 (C-terminally truncated tau fragment ending at aspartate 421 of htau40) (human, UniProt P10636 1-738).
T1 construct: Generated and purified by Genscript; also called Human TauC3; recombinant TauC3 protein
The experiment in a line: binding ELISA, TauC3 coated. The gist of the method:
(§1)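 EC50 values come from antibody concentration-response curves in a binding ELISA on coated TauC3 antigen. The chimeric or humanized IgG4κ antibodies were produced in ExpiCHO cells, and binding was measured as absorbance at 650 nm.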

In assay [2] the target is T1, TauC3 (C-terminally truncated tau …). The assay is described as follows: binding ELISA on coated TauC3, OD650. The gist of the method: as §1
For assay [3], the target named is T2, full length Tau (2N4R, htau40) (human, UniProt P10636 1-758).
T2 construct: Generated and purified by Genscript; also called FL Tau; FLT
The experiment in a line: binding ELISA on coated FL Tau, OD650. The procedure, abridged:
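Binding ELISA on coated full-length tau antigen, which was made and purified by Genscript. Antibody binding was read as absorbance at 650 nm.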

The target in assay [4] is T1, TauC3 (C-terminally truncated tau …). The experiment in a line: binding ELISA on coated TauC3, OD650. The gist of the method: as §1
The source holds these as a separate data set.

Assay [5] has the same target. The experiment in a line: binding ELISA on coated TauC3, OD650. The procedure, abridged:
as §1
The source holds these as a separate data set.

Assay [6] shares this target. The experiment in a line: binding ELISA on coated TauC3, OD650. The procedure, abridged: as §1
This is another data set of the same source.

Assay [7] has the same target. The assay is described as follows: binding ELISA on coated TauC3, OD650. The procedure, abridged: as §1
The source holds these as a separate data set.

Assay [8] has the same target. The assay is described as follows: binding ELISA on coated TauC3, OD650. The procedure, abridged: as §1
This is another data set of the same source.

Assay [9] shares this target. The experiment in a line: binding ELISA on coated TauC3, OD650. The procedure, abridged:
as §1
This is another data set of the same source.

For assay [10] the target is unchanged. The experiment in a line: binding ELISA on coated TauC3, OD650. The procedure, abridged: as §1
This is another data set of the same source.

Assay [11] has the same target. The assay is described as follows: SPR (Biacore) kinetics, TauC3 amine-coupled on CM5, 1:1 global fit. The gist of the method:
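Purified antigen was immobilised on a CM5 chip by amine coupling and studied by surface plasmon resonance (Biacore). Each purified antibody was injected over the chip as a concentration series. The data were fitted globally with a 1:1 model. That fit gave the association rate, dissociation rate and Kd.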

Assay [12] shares this target. The assay is described as follows: binding ELISA on coated TauC3, OD650; left table (HC variants). The gist of the method: as §1
For assay [13] the target is unchanged. The experiment in a line: binding ELISA on coated TauC3, OD650; right table (HM variants). The procedure, abridged: as §1
Assay [14] shares this target. The experiment in a line: Biacore kinetics, TauC3 amine-coupled on CM5, antibody series, 1:1 global fit. The text has this: (§2) To determine the affinity of the binding interactions, a biacore kinetic assay was developed which involved immobilizing TauC3 on a CM5 chip via amine coupling and injecting a concentration series of the respective antibody over it.
For assay [15] the target is unchanged. The experiment in a line: Biacore off-rate ranking, TauC3 amine-coupled on CM5, one antibody concentration; one-phase exponential decay fit. The protocol:
(§3) To further evaluate the binding data observed on the Octet, an off-rate ranking experiment was performed on the Biacore 200 instrument. Biacore offers greater selectivity than the Octet and facilitated the immobilization of TauC3 onto a CM5 chip via amine coupling which stabilizes the antigen. This produces higher quality data with stable baselines and good reproducible responses. Once TauC3 is immobilized, one concentration (5 nM) of antibody is added, followed by a dissociation and regeneration step (Section 8.20). The off-rates were fitted using a two-phase decay model (FIG. 25B) or a one phase decay fitting only the second off-rate (FIG. 25A). The candidates were then ranked based on the off-rates obtained using the fits and compared. The data agreed with the Octet results (albeit with a different ranking order), highlighting Tau01 HMKM, HMKO, HMKP, HMKN and HMKE as the humanized variants with the slowest off-rates. The lack of binding of FL Tau to chimeric and a humanized candidate was also confirmed by Biacore by loading the antibody onto a Protein G chip and adding 250 nM FL Tau.

The target is the same in assay [16]. The experiment in a line: Biacore off-rate ranking, TauC3 amine-coupled on CM5, one antibody concentration; two-phase decay fit, slow phase. Also on record: unit not given here. How it is done: as §3
For assay [17] the target is unchanged. The experiment in a line: binding ELISA on TauC3 after 21 days at 37 C in PBS or mouse, human, cynomolgus serum, with non-incubated control. The protocol:
Purified samples of the chimeric and humanized antibodies were incubated in mouse, human and cynomolgus serum for 21 days. The binding of the Tau01 HMKE, HMKM, HMKN, HMKO, HMKP candidate antibodies which had been incubated in the 3 different serums were compared with an antibody incubated in PBS and a 4° C. positive control sample by binding ELISA to TauC3 (FIG. 37). The Tau01 HMKE, HMKM, HMKN, HMKO, HMKP candidate antibodies retained their binding capability after being incubated in mouse, human and cynomolgus serum.

In assay [18] the target is T2, full length Tau (2N4R, htau40). The assay is described as follows: Octet, antibody on Protein G sensor, FL Tau in solution. The protocol:
The TauC3 and FL Tau antigens were generated and purified by Genscript and supplied at a concentration of 2.54 mg/ml or 0.24 mg/ml respectively. Binding of the chimeric antibody to TauC3 and FL Tau was assayed by binding ELISA. […] No non-specific binding to either antigen could be observed with an isotype confirming the binding observed is specific. Binding of the mouse and chimeric Tau01 antibodies to purified TauC3, was measured using Bio-Layer Interferometry (OctetRed96, ForteBio Section 8.12). The mouse and chimeric antibodies were assayed against a concentration series from 20 nM-0.31 nM TauC3 (FIGS. 8A and B). Both the mouse and chimeric antibodies were capable of binding to TauC3 in a concentration-dependent manner. The binding of the mouse and chimeric antibodies was also tested against FL Tau but low signals or no binding was observed (FIGS. 8C and D) confirming the binding of the antibodies is specific to TauC3.

The target of assay [19] is T1, TauC3 (C-terminally truncated tau …). The experiment in a line: SPR (Biacore) kinetics, TauC3 amine-coupled on CM5, antibody as analyte.
Source text: as §2

Assay [20] concerns the target T2, full length Tau (2N4R, htau40). The assay is described as follows: Biacore, antibody captured on Protein G chip, FL Tau injected [Fig. 26B]. How it is done:
as §3

Assay [21] has as its target T1, TauC3 (C-terminally truncated tau …). The experiment in a line: binding ELISA, TauC3 coated; FIG. 16 ELISA. The gist of the method: as §1
Assay [22] has the same target. The assay is described as follows: binding ELISA on coated TauC3, OD650. The gist of the method:
as §1
The source holds these as a separate data set.

The record followed here is patent US20220064272A1 (TAUC3 BIOLOGICS, published 2022).

Substitutions are numbered along the chain they refer to. Where “and” joins values, the source holds several entries; their conditions need not be identical. Identical values can stand only once.

T1 sequence (P10636 other isoform, or with tags, fused parts or gaps): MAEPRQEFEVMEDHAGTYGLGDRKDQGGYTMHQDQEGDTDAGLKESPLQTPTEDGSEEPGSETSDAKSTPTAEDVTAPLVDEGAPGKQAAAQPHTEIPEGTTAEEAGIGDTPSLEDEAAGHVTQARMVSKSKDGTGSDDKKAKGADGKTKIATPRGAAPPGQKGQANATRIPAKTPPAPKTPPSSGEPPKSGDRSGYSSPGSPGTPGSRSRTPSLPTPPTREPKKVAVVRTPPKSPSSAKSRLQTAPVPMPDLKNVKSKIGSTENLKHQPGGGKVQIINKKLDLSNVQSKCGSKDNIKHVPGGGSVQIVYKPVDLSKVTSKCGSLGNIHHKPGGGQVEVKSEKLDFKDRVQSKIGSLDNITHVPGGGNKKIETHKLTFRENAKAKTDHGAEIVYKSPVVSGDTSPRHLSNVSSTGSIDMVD
T2 sequence (P10636 other isoform, or with tags, fused parts or gaps limits assumed): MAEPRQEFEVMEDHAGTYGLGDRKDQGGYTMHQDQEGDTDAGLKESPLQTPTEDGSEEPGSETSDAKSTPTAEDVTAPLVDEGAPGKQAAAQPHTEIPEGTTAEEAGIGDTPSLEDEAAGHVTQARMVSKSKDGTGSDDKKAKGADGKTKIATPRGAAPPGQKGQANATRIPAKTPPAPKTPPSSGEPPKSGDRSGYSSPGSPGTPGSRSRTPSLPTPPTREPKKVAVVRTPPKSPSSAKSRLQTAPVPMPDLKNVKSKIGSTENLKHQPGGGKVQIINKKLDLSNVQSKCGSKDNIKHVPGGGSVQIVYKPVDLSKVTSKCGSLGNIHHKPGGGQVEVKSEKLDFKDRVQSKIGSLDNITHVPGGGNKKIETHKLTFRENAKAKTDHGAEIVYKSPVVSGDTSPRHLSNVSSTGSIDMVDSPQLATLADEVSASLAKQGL

B1: MoTau01 HuG4K chimeric antibody (antibody, V domains shown)
VH: EVQVVESGGGLVQPKGSLKLSCAASGFTFNTYAMNWVRQAPGKGLEWVARIRSKSNNYATYYADSVKDRFTISRDDSQSMVYLQMNNLKTEDTAMYYCVGGGDFWGQGTALTVSS
VL: DIQMTQSPSSLSASLGERVSLTCRASQEISVYLSWFQQKPDGTIKRLIYGAFTLDSGVPKRFSGSRSGSDYSLTISSLESEDFADYYCLQYVRYPWTFGGGTKLEIK
notes: Mouse variable regions with human IgG4 / kappa constant regions (pHuG4, pHuK); also called chimeric Tau01
For the molecule B1, the half-maximal effective concentration (EC50) in [1] was 0.7 nM and 0.65 nM; in assay [2] it was 0.71 nM; in assay [4], 0.58 nM and 0.54 nM and 0.63 nM; in [5], 0.298 nM and 0.313 nM; in assay [6], 0.724 nM; in assay [7] it was 0.724 nM. Also, the concentration giving a half-maximal response (EC50) in [8] is 0.474 nM; in assay [9], 0.474 nM; in assay [10], 0.474 nM; in assay [12] it was 0.438 nM and 0.483 nM and 0.538 nM and 0.73 nM; in assay [13], 0.438 nM and 0.483 nM and 0.538 nM and 0.73 nM. Besides, in assay [3], the binding result is “no binding (tested: about 30 nM)”. The Kd in assay [11] was 0.057 nM; in [14], 0.0574 nM. Also, the koff in assay [11] was 0.000741 s⁻¹; in assay [15] it was 0.000414 s⁻¹. The molecule also yielded a kon in [11] of 1.29e+07 M⁻¹ s⁻¹. Moreover, the Kslow in assay [16] turned out to be 0.000414. In addition, the “EC50 (read off the curve)” value in assay [17] is about 0.5 nM.

B2: MoTau01 mouse antibody (antibody, V domains shown)
VH: B1 VH
VL: B1 VL
notes: Mouse hybridoma antibody; also called mouse Tau01; murine Tau01
B2: the binding result in assay [18] is on record as “no binding (tested: not printed on the sheet)”.

B3: Tau01 HCKB HuG4K (antibody, V domains shown)
VH: LVQLVESGGGLVQPGGSLKLSCAASGFTFNTYAMNWVRQASGKGLEWVGRIRSKSNNYATYYAASVKGRFTISRDDSKSMAYLQMDSLKTEDTAVYYCVGGGDFWGQGTLVTVSS
VL: DIQMTQSPSSLSASVGDRVTITCRASQEISVYLSWFQQKPGKAIKRLIYGAFTLQSGVPSRFSGSRSGSEYTLTISSLQPEDFATYYCLQYVRYPWTFGGGTKVEIK
notes: human IgG4 kappa (HuG4K)
For B3, the EC50 was found to be 0.84 nM in [4]; 0.628 nM in assay [7]; 0.502 nM in assay [8]; 0.502 nM in assay [9]; 0.502 nM in assay [10]; 0.73 nM in [12]. In assay [13], the EC50 was 0.73 nM. In addition, the dissociation constant (Kd) in assay [19] came to 1.2 nM; in assay [14], 1.24 nM. Besides, the binding result in assay [20] is given as “no binding”. Moreover, the koff in assay [14] turned out to be 0.0249 s⁻¹; in assay [15] it was 0.0114 s⁻¹. The same molecule showed a kon in assay [14] of 2.02e+07 M⁻¹ s⁻¹. In assay [16], the Kslow is 0.012.

B4: Tau01 HBKB (antibody, V domains shown)
VH: B3 VH with L1E, L4V, G49A, A64D, A81V
VL: B3 VL
notes: human IgG4 kappa (HuG4K)
With B4, the EC50 in assay [1] came out at 0.78 nM; in [21], 0.81 nM; in assay [6], 0.767 nM; in [8], 0.402 nM; in assay [9], 0.402 nM; in assay [10], 0.402 nM.

B5: Tau01 HBKA (antibody, V domains shown)
VH: B3 VH with L1E, L4V, G49A, A64D, A81V
VL: B3 VL with S34G, F36Y, I44P, T53K, S69T, Y71F
notes: human IgG4 kappa (HuG4K)
With B5, the values for the EC50 in assay [4], in assay [6] and in assay [22] were 1.39 nM, 0.795 nM and 0.92 nM, respectively.
